Test results from patent publication US5480971A, “Peralkylated oligopeptide mixtures” (Houghten Pharmaceuticals, Inc., priority 1994, dated 1996).
Square brackets hold non-standard residues; d marks the D form. Ends that are not written are not given here. Peptide text beside a SMILES is read from it. * marks the point of attachment. NMeF = CN[C@@H](Cc1ccccc1)C(=O)O; X3 = C[C@@H](C(=O)*)[N+](C)(C)C; NMeL = CN[C@@H](CC(C)C)C(=O)O; Sar = CNCC(=O)O

What was measured:
Type in all cases: in vitro ADME
trypsin = experiment: Enzymatic susceptibility to trypsin (RP-HPLC, mass spectral analysis); details: peptide 1.0 mg/ml, enzyme to peptide 1:50, 0.1M NH4HCO3 pH 7.8, room temperature
Protocol: (§1) The stability of N-permethylated compounds to proteolysis was examined for two permethylated sequences, AlaGlyGlyPheLeu-NH2 (SEQ ID NO:37) and ArgGlyGlyPheLeu-NH2 (SEQ ID NO:38) with their non-permethylated equivalents used as controls. Treatment of these found compounds by trypsin and chymotrypsin was monitored by RP-HPLC and mass spectral analysis. Rapid cleavage of AGGFL-NH2 (SEQ ID NO:37) by chymotrypsin and RGGFL-NH2 (SEQ ID N0:38) by trypsin was observed (<1 hour), whereas less than 1 percent cleavage of the equivalent permethylated peptides was seen following overnight enzyme exposure.
(§2) The assays were performed in 1 ml 0.1M NH4 HCO3, pH 7.8, at room temperature for 16 hours at a peptide concentration of 1.0 mg/ml. Enzyme to peptide concentration was 1:50.

chymotrypsin = experiment: Enzymatic susceptibility to chymotrypsin (RP-HPLC, mass spectral analysis); details: peptide 1.0 mg/ml, enzyme to peptide 1:50, 0.1M NH4HCO3 pH 7.8, room temperature
Protocol: as §1, §2

[1] = as above; details: chymotrypsin; overnight enzyme exposure (16 hours), room temperature, pH 7.8; read-out: cleavage by chymotrypsin
Protocol: as §1, §2

Compound: ArgGlyGlyPheLeu-NH2 (RGGFL-NH2) [non-permethylated equivalent used as control]
- time in which cleavage by trypsin was observed (trypsin): < 1 h

Compound: AlaGlyGlyPheLeu-NH2 (AGGFL-NH2) [non-permethylated equivalent used as control, reference compound]
- time in which cleavage by chymotrypsin was observed (chymotrypsin): < 1 h

Compound: CNC(=O)[C@H](CC(C)C)N(C)C(=O)[C@H](Cc1ccccc1)N(C)C(=O)CN(C)C(=O)CN(C)C(=O)[C@H](C)[N+](C)(C)C [PerA-AGGFL] (X3-[Sar][Sar][NMeF][NMeL]-NHMe)
- metabolised at 16 h, 1 mg/ml [1]: < 1%
